Results taken from PMC4636849.

System: H-NS
Assay: EMSA
Details: EMSA: ~5 ng DNA, 50 ng poly(dI-dC), 15 ul, 20 C 10 min; binding buffer not stated (cited); 7% polyacrylamide gel in TAE (Tris-HCl 40 mM pH 7.4, Na acetate …)

## mdtJI promoter fragment, 588 bp (-229 to +359)
  K half: 320 nM
